Experimental data taken from patent US20210113678A1 (ENTEROME S A, published 2021).

B1: peptide 2M (peptide)
peptide: LMLGEFLKL
B2: BIRC5-B1 (peptide)
peptide: FMLGEFLKL
B3: BIRC5-H (peptide)
peptide: LTLGEFLKL
B4: IL13RA2-B (peptide)
peptide: FLPFGFILV
B5: comparative peptide 1A9V (peptide)
peptide: ALPFGFILV
B6: peptide 1F9M (peptide)
peptide: FLPFGFILM
B7: peptide 1I9A (peptide)
peptide: ILPFGFILA
B8: peptide 2M (peptide)
peptide: LMLGEFLKL
B9: BIRC5-H (peptide)
peptide: LTLGEFLKL
B10: BIRC5-B1 (peptide)
peptide: FMLGEFLKL
B11: IL13RA2-B (peptide)
peptide: FLPFGFILV
B12: peptide 1F9M (peptide)
peptide: FLPFGFILM
B13: comparative peptide 1A9V (peptide)
peptide: ALPFGFILV
B14: peptide 1I9A (peptide)
peptide: ILPFGFILA
B15: BIRC5-B3 (peptide)
peptide: GLLGEFLQI
notes: also called B1RC5-B3
B16: CHI3L1B (peptide)
peptide: LLLSAALSV
B17: EZH2-H (peptide)
peptide: FMVEDETVL
notes: Fragment of human EZH2
B18: IL13RA2-L (peptide)
peptide: FLPFGFILPV
B19: EGFR-B (peptide)
peptide: ILDEAYVRV
B20: EZH2-B (peptide)
peptide: FLVEDETVI
B21: CHI3L1B3 (peptide)
peptide: YLLSAALTI

What follows are binders tested against T1, HLA-A*0201 molecule on human T2 cells (human) (assay: T2 cells expressing HLA-A*0201, anti-HLA-A2-PE, FACS (Example 9)).
T1 construct: read out with anti-HLA-A2 antibody BB7.2-PE; also called HLA-A2

Compared with B1, B2 is higher in “mean relative fluorescence intensity at 0.1 µM peptide” value: 0.76 % of HIV peptide for the first, 1.07 % of HIV peptide for the second.

With B3 the “mean relative fluorescence intensity at 0.1 µM peptide” value was 0 % of HIV peptide.

Compared with B1, B2 is higher in “mean relative fluorescence intensity at 1 µM peptide” value: 8.37 % of HIV peptide for the first, 17.4 % of HIV peptide for the second.

For B3, the “mean relative fluorescence intensity at 1 µM peptide” value was 0 % of HIV peptide.

Going from B1 to B2, the “mean relative fluorescence intensity at 10 µM peptide” value rises from 48.5 % of HIV peptide to 65.1 % of HIV peptide.

With B3 the “mean relative fluorescence intensity at 10 µM peptide” value was 3.52 % of HIV peptide.

First: B1
Second: B2
The “mean relative fluorescence intensity at 100 µM peptide” value of the first is lower: 75.2 % of HIV peptide for the first, 102 % of HIV peptide for the second.

In the case of B3, the “mean relative fluorescence intensity at 100 µM peptide” value is reported as 20.5 % of HIV peptide.

Each binder was assayed against T2, HLA-A*0201 molecule expressed by the human tumoral cell T2 (human) (assay: T2 cell HLA-A2 stabilisation assay, flow cytometry with anti-HLA-A2 BB7.2-PE).
T2 construct: MHC class I on T2 cells; The tested peptide is added from outside; Surface HLA-A2 is read with anti-HLA-A2 antibody BB7.2-PE; also called HLA-A2

B4: binds.
B5: binds.
B6: binds.
B7: binds.
B8: binds.
B9: binds.
B10: binds.

These binders were tested against T1, HLA-A*0201 molecule on human T2 cells (assay: T2 cells expressing HLA-A*0201, anti-HLA-A2-PE, FACS (Example 7)).

Going from B11 to B12, the “In vitro binding affinity (relative to reference peptide HIV pol 589-597)” value rises from 0.49 to 2.62.

Going from B13 to B14, the “In vitro binding affinity (relative to reference peptide HIV pol 589-597)” value falls from 3.06 to 2.22.

Each binder was assayed against T1, HLA-A*0201 molecule on human T2 cells (assay: T2 cells expressing HLA-A*0201, anti-HLA-A2-PE, FACS).

Compared with B15, B16 is 6.4-fold lower in “Concentration of peptide that induces 20% of HLA-A2 expression” value: 22.9 µM for the first, 3.6 µM for the second.

Compared with B17, B2 is 4.9-fold lower in “Concentration of peptide that induces 20% of HLA-A2 expression” value: 13.3 µM for the first, 2.7 µM for the second.

First: B3
Second: B11
The “Concentration of peptide that induces 20% of HLA-A2 expression” value of the first is 18-fold higher: 53 µM for the first, 2.9 µM for the second.

Going from B19 to B20, the “Concentration of peptide that induces 20% of HLA-A2 expression” value rises from 3.1 µM to 8.8 µM (2.8-fold).

With B21 the “Concentration of peptide that induces 20% of HLA-A2 expression” value was 8.6 µM.

Compared with B15, B16 is lower in “In vitro binding affinity (relative to reference peptide HIV pol 589-597)” value: 7 for the first, 0.9 for the second.

Compared with B17, B2 is lower in “In vitro binding affinity (relative to reference peptide HIV pol 589-597)” value: 1.1 for the first, 0.8 for the second.

Compared with B3, B11 is lower in “In vitro binding affinity (relative to reference peptide HIV pol 589-597)” value: 16.1 for the first, 0.3 for the second.

First: B18
Second: B19
The “In vitro binding affinity (relative to reference peptide HIV pol 589-597)” value of the first is higher: 0.3 for the first, 0.2 for the second.

Going from B20 to B21, the “In vitro binding affinity (relative to reference peptide HIV pol 589-597)” value rises from 0.7 to 2.2.

What follows are binders tested against T1, HLA-A*0201 molecule on human T2 cells (assay: T2 cells expressing HLA-A*0201, anti-HLA-A2-PE, FACS (Example 8)).

First: B11
Second: B13
The “Concentration of peptide that induces 20% of HLA-A2 expression” value of the first is 13-fold lower: 2.9 µM for the first, 36.5 µM for the second.

Compared with B11, B13 is higher in “In vitro binding affinity (relative to reference peptide HIV pol 589-597)” value: 0.3 for the first, 3.6 for the second.

For B18, the “In vitro binding affinity (relative to reference peptide HIV pol 589-597)” value was 0.3.

Target: T1, HLA-A*0201 molecule on human T2 cells
Assay: T2 cells expressing HLA-A*0201, anti-HLA-A2-PE, FACS (Example 9)
Remark: another data set of the same source

First: B1
Second: B2
The “Concentration of peptide that induces 20% of HLA-A2 expression” value of the first is 2.3-fold higher: 2.87 µM for the first, 1.24 µM for the second.

In the case of B3, the “Concentration of peptide that induces 20% of HLA-A2 expression” value is reported as 95.9 µM.

First: B1
Second: B2
The “In vitro binding affinity (relative to reference peptide HIV pol 589-597)” value of the first is higher: 3.38 for the first, 1.46 for the second.

For B3, the “In vitro binding affinity (relative to reference peptide HIV pol 589-597)” value was 113.

Target: T1, HLA-A*0201 molecule on human T2 cells
Assay: T2 cells expressing HLA-A*0201, anti-HLA-A2-PE, FACS
Remark: another data set of the same source

First: B15
Second: B16
The “mean relative fluorescence intensity at 1.5625 µM peptide” value of the first is lower: 9.4 % of HIV peptide for the first, 13.5 % of HIV peptide for the second.

Compared with B17, B2 is higher in “mean relative fluorescence intensity at 1.5625 µM peptide” value: 0 % of HIV peptide for the first, 1.9 % of HIV peptide for the second.

Compared with B3, B11 is higher in “mean relative fluorescence intensity at 1.5625 µM peptide” value: 1.7 % of HIV peptide for the first, 14.8 % of HIV peptide for the second.

First: B19
Second: B20
The “mean relative fluorescence intensity at 1.5625 µM peptide” value of the first is higher: 12.7 % of HIV peptide for the first, 5.5 % of HIV peptide for the second.

B21 was tested, and the “mean relative fluorescence intensity at 1.5625 µM peptide” value was 2.5 % of HIV peptide.

Compared with B15, B16 is higher in “mean relative fluorescence intensity at 3.125 µM peptide” value: 8.9 % of HIV peptide for the first, 23.9 % of HIV peptide for the second.

First: B17
Second: B2
The “mean relative fluorescence intensity at 3.125 µM peptide” value of the first is lower: 0.7 % of HIV peptide for the first, 22.3 % of HIV peptide for the second.

Going from B3 to B11, the “mean relative fluorescence intensity at 3.125 µM peptide” value rises from 1.4 % of HIV peptide to 15.7 % of HIV peptide.

Going from B19 to B20, the “mean relative fluorescence intensity at 3.125 µM peptide” value falls from 22.7 % of HIV peptide to 14.4 % of HIV peptide.

For B21, the “mean relative fluorescence intensity at 3.125 µM peptide” value was 14.3 % of HIV peptide.

Compared with B15, B16 is higher in “mean relative fluorescence intensity at 25 µM peptide” value: 20.9 % of HIV peptide for the first, 45.3 % of HIV peptide for the second.

Going from B17 to B2, the “mean relative fluorescence intensity at 25 µM peptide” value rises from 40.7 % of HIV peptide to 61.7 % of HIV peptide.

Compared with B3, B11 is higher in “mean relative fluorescence intensity at 25 µM peptide” value: 9.8 % of HIV peptide for the first, 86.5 % of HIV peptide for the second.

Going from B19 to B20, the “mean relative fluorescence intensity at 25 µM peptide” value rises from 53.2 % of HIV peptide to 53.9 % of HIV peptide.

For B21, the “mean relative fluorescence intensity at 25 µM peptide” value was 36.7 % of HIV peptide.

First: B15
Second: B16
The “mean relative fluorescence intensity at 50 µM peptide” value of the first is lower: 29.8 % of HIV peptide for the first, 85 % of HIV peptide for the second.

First: B17
Second: B2
The “mean relative fluorescence intensity at 50 µM peptide” value of the first is lower: 66 % of HIV peptide for the first, 77.1 % of HIV peptide for the second.

Going from B3 to B11, the “mean relative fluorescence intensity at 50 µM peptide” value rises from 18.9 % of HIV peptide to 113 % of HIV peptide.

Compared with B19, B20 is higher in “mean relative fluorescence intensity at 50 µM peptide” value: 66.7 % of HIV peptide for the first, 82.6 % of HIV peptide for the second.

B21 was tested, and the “mean relative fluorescence intensity at 50 µM peptide” value was 108 % of HIV peptide.

First: B15
Second: B16
The “mean relative fluorescence intensity at 100 µM peptide” value of the first is lower: 35 % of HIV peptide for the first, 58.9 % of HIV peptide for the second.

Compared with B17, B2 is higher in “mean relative fluorescence intensity at 100 µM peptide” value: 95.4 % of HIV peptide for the first, 117 % of HIV peptide for the second.

Compared with B3, B11 is higher in “mean relative fluorescence intensity at 100 µM peptide” value: 35.6 % of HIV peptide for the first, 128 % of HIV peptide for the second.

First: B19
Second: B20
The “mean relative fluorescence intensity at 100 µM peptide” value of the first is lower: 70.3 % of HIV peptide for the first, 94.9 % of HIV peptide for the second.

B21 was tested, and the “mean relative fluorescence intensity at 100 µM peptide” value was 76.9 % of HIV peptide.

Going from B16 to B17, the “mean relative fluorescence intensity at 6.25 µM peptide” value falls from 44 % of HIV peptide to 10.6 % of HIV peptide.

First: B2
Second: B3
The “mean relative fluorescence intensity at 6.25 µM peptide” value of the first is higher: 36.1 % of HIV peptide for the first, 10.8 % of HIV peptide for the second.

First: B11
Second: B19
The “mean relative fluorescence intensity at 6.25 µM peptide” value of the first is higher: 40.8 % of HIV peptide for the first, 29.2 % of HIV peptide for the second.

First: B20
Second: B21
The “mean relative fluorescence intensity at 6.25 µM peptide” value of the first is lower: 28.9 % of HIV peptide for the first, 30.2 % of HIV peptide for the second.
